Measured values from the supplement of paper PMC7125110.
± gives the standard error. Variants at the floor of the assay were thinned out.

B1: glmS ribozyme (parent)
chain: AUAAAAGCGCCAGAACUACAGAAAUGUAGUUGACGAGGAGGAGGUUUAUCGAAUUUUCGGCGGAUGCCUCCAAA

How the values were obtained:
Settings in all cases: with glucosamine-6-phosphate
glucosamine-6-phosphate [1] = variants of: B1; assay: self-cleavage kobs at 640 uM GlcN6P; higher = faster cleavage; RNA array
In short: (§1)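 Glucosamine-6-phosphate in HEPES/KCl/Mg(OAc)2 buffer, at 40 μM to 10 mM, was flowed over barcoded ribozyme variants transcribed in situ by E. coli RNA polymerase on sequenced MiSeq chips. Tracking was through a hybridised Cy3 probe at 37 °C. kobs, kcat and KM came from exponential decay fits and weighted Michaelis–Menten fits of normalised per-tile medians.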

glucosamine-6-phosphate [2] = variants of: B1; assay: self-cleavage kobs at 2500 uM GlcN6P; higher = faster cleavage; RNA array
In short: as §1

glucosamine-6-phosphate [3] = variants of: B1; assay: self-cleavage kobs at 10000 uM GlcN6P; higher = faster cleavage; RNA array
In short: as §1

| Variant | self-cleavage kobs at 640 uM GlcN6P (glucosamine-6-phosphate [1]) [s⁻¹] | self-cleavage kobs at 2500 uM GlcN6P (glucosamine-6-phosphate [2]) [s⁻¹] | self-cleavage kobs at 10000 uM GlcN6P (glucosamine-6-phosphate [3]) [s⁻¹] |
| --- | --- | --- | --- |
| AUAAAAGCGCUAGAACUACAGAAAUGUAGUCGACGAGGAGCAGGUUUACCGAAUUUUCGGCAGAUGCCUCCAAA [C11U U31C G41C U49C G62A] | < 1e-05 |  |  |
| AUAAAAGCGCGACAACUACAGAAAUGUAGUUGACGAGGAGGAGGUUUGUCGAAUUUUCGGCGGAUGCCUCCAAA [C11G G13C A48G] | < 1e-05 | < 1e-05 |  |
| AUAAAAGCGCUAGAACUACAGAAAUGUAUUUGACGAGGAGGAGGUUUAUCGAAAUUUCGGCGGAUGCCUCCAAA [C11U G29U U54A] | 0.000113 ± 2.1e-05 | 0.000171 ± 4.4e-05 | 0.000577 ± 0.00014 |
| AUAAAAGCGCGAGAACUACAGAAAUGUAGUUGACGAGGAGGAGUUGAAUCGAAUUUUCAGCGGUUGACUCCAAA [C11G G44U U46G U47A G59A A64U C67A] | < 1e-05 |  |  |
| AUAAAAGCGCUAGAACUACAGAAAUGUAGUUGACGAGGAGGAGGUUUUUCGAAUUUUCGGCGGAUUCCUCCAAA [C11U A48U G66U] | < 1e-05 |  |  |
| AUAAAAGCGCUAGAUCUACAGAAAUGUAGUUGACGAGAAGGAGGUUUAUCGAUUUUUCGGCGGAUGCCUCCAAA [C11U A15U G38A A53U] | < 1e-05 |  |  |
| AUAAAAGCGCUAGAACUACAGAAAUGUAGUUGACGAGGAGGAGGUUACUCGAAUUUUCGGAGGAUGCCUUAAAA [C11U U47A A48C C61A C70U C71A] | < 1e-05 | < 1e-05 |  |
| AUAAAAGCGCGAGAACUACAGAAAUGUAGUUGACGAGGAGGAGGUUUAUAGGAUUUUCGGCGGAUGCCUCCAAA [C11G C50A A52G] | < 1e-05 |  |  |
| AUAAAAGCGCAAGAACUACAGAAAUGUAGUUGACGAGGAGGAGGUUUAUCGAAGUUUCGGCGGAUGGCUCAAAA [C11A U54G C67G C71A] | 0.0001 ± 4e-05 | 0.000224 ± 8.9e-05 |  |
| AUAAAAGCGCUAGAACUACAGAAAUGUAGUUGACGAGGAGGAGGUUUAUCGAUUUUUCGGCGGAUGCCUGCAAA [C11U A53U C70G] | 0.000189 ± 5.3e-05 |  |  |
| AUAAAAGCGCUAGAACUACAGAAAUGUAGCUGACGAGGAGGAAGUUUAUCGAAUUUUCGGCGGAUGCCUCCAAA [C11U U30C G43A] | < 1e-05 |  |  |
| AUAAAAGCGCGAGAACUACAGAAAUGUAGAUGCCGAGGAGGAGGUUUAUCGAAUUUUCGGCGGAUGCCUCCAAA [C11G U30A A33C] | < 1e-05 | < 1e-05 |  |
| AUAAAAGCGCGAGUACUACAGAAAUGUAGUUGACGUGGAGGAGGUAUAUCGAAUUUUCGGGGAAUGCCUCCAAA [C11G A14U A36U U46A C61G G63A] | < 1e-05 | < 1e-05 |  |
| AUAAAAGCGCUAGAACUACAGAAAUGUAGUUGACGAGAAGGAGGUUUAUCGAAUUUUCGGCGGAUGGCUCCAAA [C11U G38A C67G] | 7.1e-05 ± 3.3e-05 |  |  |
| AUAAAAGCGCUCGAACUACAGAAAUGUAGUGUACGAGGAGGAGGUUUAUCGAAUUUGCGGCGGAUGCCUCCAAA [C11U A12C U31G G32U U57G] | < 1e-05 |  |  |
| AUAAAAGCGCGAGAACUACAGAAAUGUAGUUGAGGAGGAGGAGGUUUAUCGAAUUUUCAGCGGAUGCCUCCAAA [C11G C34G G59A] | < 1e-05 | < 1e-05 |  |
| AUAAAAGCGCUAGAACUACAGAAAUGUAUUUGACGAGGAGGAGGUUUAUCGCAUUUUCGGCGGAUGCCUCCAAA [C11U G29U A52C] | < 1e-05 |  |  |
| AUAAAAGCGCUAGAACUACAGAAAUGUAGUUCACGAGGAGGAGGUUUAUGGUAUUUUCGGCGGAUGCCUCCAAA [C11U G32C C50G A52U] | < 1e-05 |  |  |
| AUAAAAGCGCUAGAACUACAGAAAUGUAGUUGACUAGGAGGAGAUUUAUCGAAUUUUCGGCGGAUGCCUCCAAA [C11U G35U G44A] | < 1e-05 | < 1e-05 |  |
| AUAAAAGCGCUAGAACUACAGAAAUGUAGUUGACGAGGAGGAAGUUUUUCGACUUUUCGGUGGAUGCCUCCAAA [C11U G43A A48U A53C C61U] | < 1e-05 | < 1e-05 |  |
| AUAAAAGCGCUAGAACUACAGAAAUGUAGUUGUCGAGGAGGAGGUUUAUCGACUUUUCGGCGGAUGCCUCCAAA [C11U A33U A53C] | < 1e-05 |  |  |
| AUAAAAGCGCUAGAACUACAGAAAUGUAGUUGACGAGGAGCAGGUUUAUCGAAGUUUCCGCGGAUGCCUCCAAA [C11U G41C U54G G59C] | < 1e-05 |  |  |
| AUAAAAGCGCAAGAACUACAGAAAUGUAGUUGACGAGGAGGAGUUUUGUCGAAUUUUCGGAGGAUGCCUCCAAA [C11A G44U A48G C61A] | < 1e-05 |  |  |
| AUAAAAGCGCCCGCACUACAGAAAUGUAGUUGACGAGGAGGAGGUUUUUCGAAUUUUCGACGGAUGCCUCCAAA [A12C A14C A48U G60A] | < 1e-05 |  |  |

| Variant | self-cleavage kobs at 640 uM GlcN6P (glucosamine-6-phosphate [1]) [s⁻¹] | self-cleavage kobs at 2500 uM GlcN6P (glucosamine-6-phosphate [2]) [s⁻¹] | self-cleavage kobs at 10000 uM GlcN6P (glucosamine-6-phosphate [3]) [s⁻¹] |
| --- | --- | --- | --- |
| AUAAAAGCGCAAGAACUACAGAAAUGUAGUUGACGAGGAGGAGGUUUAUCGAAUUUUCGGCGAAUGCCUCCAAA [C11A G63A] | < 1e-05 | < 1e-05 | < 1e-05 |
| AUAAAAGCGCUAGAACUACAGAAAUGUAGUUGACGAGGAGGAGGUUUGUCGAAUUUUCGGCGGAUGCUUCCAAA [C11U A48G C68U] | < 1e-05 |  |  |
| AUAAAAGCGCUAGAACUACAGAAAUGUAGUUGACGCGGGGGAGGUUUAUCGAAUUUUCGGCGGAUGGCUCCAAA [C11U A36C A39G C67G] | < 1e-05 | < 1e-05 |  |
| AUAAAAGCGCGAGAACUACAGAAAUGUAGUAGACGAGGAGGAGGUUCAUCGAAUUUUCGGGGGAUGCCUCCAAA [C11G U31A U47C C61G] | < 1e-05 | < 1e-05 |  |
| AUAAAAGCGCGAGAACUACAGAAAUGUAGUUGACGAGGAGGAGGUUUAUCGAUUGUUCGGCGGAUGGCUCCAAA [C11G A53U U55G C67G] | 0.000112 ± 4.8e-05 |  |  |
| AUAAAAGCGCUAGAACUACAGAAAUGUAGUUGACGAGGAGGUGGUUUAUCGAAUGUUCGGCGUAUGCUUCCAAA [C11U A42U U55G G63U C68U] | < 1e-05 | < 1e-05 |  |
| AUAAAAGCGCGAGAACUACAGAAAUGUAGUUGACGAGGAGGACGCUUAUCGAAUUUUCGGCGGAUGCCUCCAAA [C11G G43C U45C] | < 1e-05 | < 1e-05 |  |
| AUAAAAGCGCGAGGACUACAGAAAUGUAGUUGAAGAGGAGUAGGUUUACCGAAUUUUCGGCGGAUGCCUCCAAA [C11G A14G C34A G41U U49C] | < 1e-05 |  |  |
| AUAAAAGCGCGAGAACUACAGAAAUGUAGUUGACGAGGAGGAGGCCUAUCGAAUUUUCGGUGGAUGCCUCCAAA [C11G U45C U46C C61U] | < 1e-05 | < 1e-05 |  |
| AUAAAAGCGCUGGAACUACAGAAAUGUAGUUGACGAGGAGGAGGUUUAUCGAAUUUUCGGCGGAUGACUCCAAA [C11U A12G C67A] | 8.5e-05 ± 2e-05 | 0.000771 ± 0.00025 |  |
| AUAAAAGCGCGAGAACUACAGAAAUGUAGUUGACGAGGCGGAGGUUUAUCGAAUUUUCGGCGGAUGCCUCCAAA [C11G A39C] | < 1e-05 | < 1e-05 | < 1e-05 |
| AUAAAAGCGCUAGAACUACAGAAAUGUAUUUGACGACGAGGAGGUUUAUCGAAUUUUCGGCGGAUGCCUACAAA [C11U G29U G37C C70A] | 0.000166 ± 5.6e-05 |  |  |
| AUAAAAGCGCGAGAACUACAGAAAUGUAGUUGACCAGGAGGAGGUUUAUCGUAUUUUCGGCGGAUGCCUCCAAA [C11G G35C A52U] | < 1e-05 |  |  |
| AUAAAAGCGCAAGAACUACAGAAAUGUAGUUGACGAGGAGGAGGUGUAUCGAAUUUUCGGGGGAUGCCUCCAAA [C11A U46G C61G] | < 1e-05 | < 1e-05 |  |
| AUAAAAGCGCUAGAAAUACAGAAAUGUAGAUCACGAGGAGGAGGUUUAUCGAAUUUUCGGCGGAUGCCGCCAAA [C11U C16A U30A G32C U69G] | 0.000926 ± 0.00019 |  |  |
| AUAAAAGCGCUAGAGCUACAGAAAUGUAGUUGACGAGGAGGAGGUUUAUCGAAUUUUCGGCGGAUGCCUUCAAA [C11U A15G C70U] | 0.000677 ± 0.00015 | 0.00215 ± 0.00061 |  |
| AUAAAAGCGCUAGAACUACAGAAAUGUAGUUGACGAGGAGGAGGUUUAUCGAAUUUUCGGCGGAUGACUCUAAA [C11U C67A C71U] | 4.57e-05 ± 1.8e-05 | 5.18e-05 ± 1.8e-05 |  |
| AUAAAAGCGCGAGAACUACAGAAAUGUAGUUGACGAGGAGGAGGUUUAUCGAAUUUUCGGCGGAUGCCUGCAAA [C11G C70G] | 9.08e-05 ± 1.6e-05 | 5.33e-05 ± 1.4e-05 | 2.25e-05 ± 9.6e-06 |
| AUAAAAGCGCUAGAACUACAGAAAUGUAGUUGACGAGGAGAAGGUUUAUCGAAUUUUCGUCGUAUGCCUUCAAA [C11U G41A G60U G63U C70U] | < 1e-05 | < 1e-05 |  |
| AUAAAAGCGCUAUGACUACAGAAAUGUAGUUGACGAGCAGGAGGUUUAUCGAAUUUUCGGCGGAUGCCUCCAAA [C11U G13U A14G G38C] | < 1e-05 |  |  |
| AUAAAAGCGCAAGAACUACAGAAAUGUAGUUGACGAGGAGGAGGUCUAUCGAAUUUUCGGCGGAUGCCUCCAAA [C11A U46C] | < 1e-05 |  |  |
| AUAAAAGCGCCCGGACUACAGAAAUGUAGUUGAGGAGUAGGAGGUUUAGCGAAUUUUCGGCGGGUGCCUCCAAA [A12C A14G C34G G38U U49G A64G] | < 1e-05 | < 1e-05 |  |
| AUAAAAGCGCGAGAACUACAGAAAUGUAGUUGACGAGGAGGAGGUUUAUCGAAUUUUCGGCGGAUGCCUCGAAA [C11G C71G] | 0.000382 ± 0.00018 |  |  |
